Assay [1] concerns the target T1, recombinant human Tenascin-C (rhTNC) (human).
T1 construct: It was purified on a Ni column, but no tag is described; also called recombinant hTNC
Kind of assay: indirect ELISA on rhTNC, Nb dilutions 5x10^-7 M to 5x10^-12 M.

Assay [2] addresses T2, recombinant murine TNC (mTNC) (murine).
T2 construct: also called recombinant mTNC
Kind of assay: isothermal fluorescence titration, fluorescently tagged mTNC 700 nM, Nb 500-3500 nM.

Among the data in patent EP4047016A1 (Université de Strasbourg, dated 2022) are EC50 and Kd values, retold here.

B1: single-domain antibody directed against Tenascin-C (TNC) Nb3 (VHH)
VHH: WLQLVESGGGSVQTGGSLRLSCVVSGYTNSIYTLAWFRQAPGKEREGVAAIGSRNGNTYYDASVKDRFTISLDKAKNTVYLQMNDLKPEDTASYYCAAGSSWDLILQAYAYDYWGQGTQVTVSS
modifications: Conjugated to 5 nm colloidal gold in the electron microscopy assay only.
notes: also called C3
A word on the EC50: it is the concentration that produces a half-maximal response. Usually Kd stands for the concentration at which binding is half-saturated. As for B1, the EC50 in assay [1] was ~10 nM. For the same molecule, in assay [2], the Kd came to 711 nM.

B2: single-domain antibody directed against Tenascin-C (TNC) Nb4 (VHH)
VHH: WVQLVESGGGSVQTGGSLRLSCVVSGYTNSIYTLAWFRQAPGKEREGVAAIASRNGNTYYDASVKDRFTISLDKAKNTVYLQMNGLKPEDTASYYCAAGSSWDLILQAYAYDYWGQGTQVTVSS
modifications: Conjugated to 5 nm colloidal gold in the electron microscopy assay only.
notes: Dromedary VHH made in the E. coli WK6 periplasm and purified by IMAC; Conjugated to 5 nm colloidal gold for electron microscopy; also called C4
As for B2, the EC50 in assay [1] is ~5 nM. Also, the Kd in assay [2] was 537 nM.
